Reference: the nanobody polyreactivity screen of Harvey et al. (2022)

Experiment: yeast display, Sf9 membrane polyspecificity reagent, FACS + sequencing; frameworks hold sequencing errors
Procedure, shortened: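 Nanobodies from a synthetic yeast display library (Saccharomyces cerevisiae BJ5465), induced 36–48 hours with galactose, were stained 1 hour at 4 °C with 10% biotinylated, detergent-solubilized Sf9 membrane reagent, enriched on streptavidin microbeads, then FACS-sorted. Anti-HA (expression) and streptavidin (reagent binding) fluorescence set low and high (top ~1%) gates. Polyreactivity labels come from the gate of origin. Genes were colony-PCR amplified, MiSeq 2 × 250 sequenced and filtered by CDR length.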

Sequence	polyreactivity (PSR sort gate)
QVQLVESGGGLVQAGGSLRLSCAASGSTFDPNVMGWYRQAPGNERELVADITTTGVSTYYADSVKGRFTISRDNAKNTVYLQMNSLKPEDTAVYYCNAKLYWYLTRDAYRYRYTYDYWGQGTQVTVSS	low polyreactivity
QVQLVESGGGLVQAGGSLRLSCAASGSIFVKNAMGWYRQAPGKERELVAVITIRTATPYYADSVKGRFTISRDNAKNSVYLQMNSLKPEDTAVYYCAAAKRQRGYLQREGNYWGQGTQVTVSS	low polyreactivity
QVQLVESGGGLVQAGGSLRLSCAASGSTFSYYAIGWYRQAPGKERELVAAISRRGGSTYYADSVKGRFTISRDNAKNTVYLQMNRLKPEDTAVYYCAADYYFSSRIEYYYWGQGTQVTVSS	high polyreactivity
QVQLVESGGGLVQAGGSLRLSCADSGLTFWVYAMGWYRQAPGKERELVAAISSGGSTNYADSVKGRFTISRDNAKNTVYVQMNSLKPEDTAVYYCAAEWVYWQDELWDSPGLVEFDYWGQGTQVTVSS	low polyreactivity
LVQLVESGGGLVQAGGSLRLSCAASGNIFYWYAMGWYRQAPRKEREFVAAITRSGGSTSYADSVKGRFTISRDNAKNTVYLQMNSLKPEDTAVYYCNATHWVHFQEFYSWGQGTQVTVSS	low polyreactivity
QVQLVESGGGLVQAGGSLRLSCAASGRIFQRNAMGWYRLAPGKERELVAAITSTGVRTYYADSVKGRFTISRDNAKNTVYLQLNSLKPEDTAVYYCAVRGERRYIYDYWGQGTQVTVSS	high polyreactivity
QVQLVESGGGLVQAGGSLRLSCDASGSTFVGNSMGWYRPAPGKERELVAALTQSGGNTFYADSVKGRFTISRDYAKNTVYLQINSLKPEDTAVYYCAATVSNGVKLDGPARVDLDYWGQGTQVTVSS	low polyreactivity
QVQLVESGGGLVQAGGSLRLSCAASGSIFLRYAMGWYRQAPGKERELVASITSGGSRYYADSVKGRFTISRDNAKNTVYFQMNSLKPEDTAVYYCNALPYRYRRYDYWGQGTQVTVSS	low polyreactivity
QVQLVESGGGLVQAGGRLRLSCAASGSTLSGNAMGGYRQAPGKERELVAAITSSGGRTYYADSVKGRFTISRDNAKNTVYLQMNSLKPEDTAVYYCAKDRYGWGQGTQVTVSS	high polyreactivity
QVQLVESGGGLVQAGGSLRLSCAPSGGTFLSNVMVWYRQAPGKERELVAAISSRGGSTYFADSVKGRFTISRDNAKNNVYFQMNSLKPVDTAVYYCNVRAAHYKDRQYDYWGQGTQGTVSS	high polyreactivity
QVQLVESGGGIVQAGGRLRLRCAASGSNFYYNAMGWYRQAPGKERELVAAITWSGGRTYYADSVKGRFTISRDNAKNTVYLQMNSLKPEDTAVYYCNARYRASRYNYWGQGTQVTVSS	high polyreactivity
QVLLVESGRVLVQAGGSLRLSCAASVSIFANYAMARYIQAPGKERELVASITSSARRTFYADSVKGRFTISRDNAKNTVYLQMNSLKPEVTAVYYCAAKHRRRTVSTRYDDWGQGTQGTVSS	high polyreactivity
QVQLVESGGVLVQEGGSLSLSCTASRSIFLKYAMGWYRQAPGKERELVAAISSRDASTYYADSVKGRFSISRDNAKKSVYLQMNSLKPEDTAVYYCNVAQNYWAGLYDYWGQGTQVTVSS	high polyreactivity
QVQLVESGGGLVQAGGSLRLSCAASGRIFSVYAMGWYRQEPGKERELVAAITRNGATTYYADSVKGRFTISRDNAKNTVYLQMNSLKPEDTAVYYCAARPLFASRTKYGYWGQGTQVTVSS	high polyreactivity
QVQLEESGGGLVQAGGSLRLRCAASGRTFHAYVMGWYRQAPGKERELVADISSGGDTYADSVKGRFTISRDNAKNTVYLQMNSLKPEDSAVYYCAVDLIQDESGYWGQGTQVNVSS	low polyreactivity
QVQLVESGGGLVQAGGSLRLSCAASGSIFSLYAMGWYRQAPGKERELVAAISSSGTSTYYADSVKGRFTISRDNAKNTVYLQMYSLKTEDTAVYYCNAYRRRATYNGDYWGQGTQVTVSS	high polyreactivity
QVQLVESGGGLVQAGGSLRLSCAASGSILYRYTMGWYRQAPGKERELVAAITKRGGRTYYADSVKGRFTISRDNAKNTVYLQMNSLKPEDTAVYYCAAKYYTGGSFEMYYWGQGTQVTVSS	high polyreactivity
